Test results as given in paper PMC8460447 (Nature chemical biology, 2021).

Target: neddylated CUL5 (human, UniProt Q93034 1-780, Lys724 isopeptide-linked to NEDD8)
Assay: cryo-EM structure

Chain of neddylated CUL5 (Q93034 whole entry): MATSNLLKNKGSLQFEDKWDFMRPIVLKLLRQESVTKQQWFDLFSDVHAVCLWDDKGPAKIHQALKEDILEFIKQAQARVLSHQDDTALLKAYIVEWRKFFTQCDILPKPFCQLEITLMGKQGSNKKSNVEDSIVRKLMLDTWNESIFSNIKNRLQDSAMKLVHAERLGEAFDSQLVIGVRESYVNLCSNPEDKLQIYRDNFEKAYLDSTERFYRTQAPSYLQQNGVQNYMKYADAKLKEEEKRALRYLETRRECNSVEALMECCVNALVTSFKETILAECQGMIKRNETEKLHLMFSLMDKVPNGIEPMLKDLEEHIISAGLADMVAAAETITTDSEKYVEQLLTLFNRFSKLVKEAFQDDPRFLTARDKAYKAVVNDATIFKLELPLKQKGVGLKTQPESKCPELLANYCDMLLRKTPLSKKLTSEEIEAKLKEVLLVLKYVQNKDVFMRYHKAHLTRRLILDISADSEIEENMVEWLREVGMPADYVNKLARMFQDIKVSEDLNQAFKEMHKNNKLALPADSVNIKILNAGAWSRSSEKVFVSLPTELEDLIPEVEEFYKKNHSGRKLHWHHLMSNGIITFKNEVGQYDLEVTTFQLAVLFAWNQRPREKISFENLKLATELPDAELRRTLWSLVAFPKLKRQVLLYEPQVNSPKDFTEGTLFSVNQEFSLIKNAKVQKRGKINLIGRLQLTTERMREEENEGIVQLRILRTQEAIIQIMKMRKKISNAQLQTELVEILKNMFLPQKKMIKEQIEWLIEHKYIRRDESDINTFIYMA

B1: RBX2 (natural protein)
chain: EDGEETCALASHSGSSGSKSGGDKMFSLKKWNAVAMWSWDVECDTCAICRVQVMDACLRCQAENKQEDCVVVWGECNHSFHNCCMSLWVKQNNRCPLCQQDWVVQRIGK
B1: binds.

B2: ARIH2* (full-length ARIH2 with L381A, E382A and E455A residue substitutions) (enzyme)
chain: MSVDMNSQGSDSNEEDYDPNCEEEEEEEEDDPGDIEDYYVGVASDVEQQGADAFDPEEYQFTCLTYKESEGALNEHMTSLASVLKVSHSVAKLILVNFHWQVSEILDRYKSNSAQLLVEARVQPNPSKHVPTSHPPHHCAVCMQFVRKENLLSLACQHQFCRSCWEQHCSVLVKDGVGVGVSCMAQDCPLRTPEDFVFPLLPNEELREKYRRYLFRDYVESHYQLQLCPGADCPMVIRVQEPRARRVQCNRCNEVFCFKCRQMYHAPTDCATIRKWLTKCADDSETANYISAHTKDCPKCNICIEKNGGCNHMQCSKCKHDFCWMCLGDWKTHGSEYYECSRYKENPDIVNQSQQAQAREALKKYLFYFERWENHNKSLQAAAQTYQRIHEKIQERVMNNLGTWIDWQYLQNAAKLLAKCRYTLQYTYPYAYYMESGPRKKLFEYQQAQLEAEIANLSWKVERADSYDRGDLENQMHIAEQRRRTLLKDFHDT
B2: binds.
